Source: paper PMC4288197, “Novel RNA chaperone domain of RNA-binding protein La is regulated by AKT phosphorylation”
Numbering of substitutions follows the chain as printed.

T1: LaΔRCD (Homo sapiens, UniProt P05455 1-408, R334G;R335G;F336V;K337G;G338G;K339G;F357V;K360G;K361G;T362T;K363G;F364V)
T1 sequence: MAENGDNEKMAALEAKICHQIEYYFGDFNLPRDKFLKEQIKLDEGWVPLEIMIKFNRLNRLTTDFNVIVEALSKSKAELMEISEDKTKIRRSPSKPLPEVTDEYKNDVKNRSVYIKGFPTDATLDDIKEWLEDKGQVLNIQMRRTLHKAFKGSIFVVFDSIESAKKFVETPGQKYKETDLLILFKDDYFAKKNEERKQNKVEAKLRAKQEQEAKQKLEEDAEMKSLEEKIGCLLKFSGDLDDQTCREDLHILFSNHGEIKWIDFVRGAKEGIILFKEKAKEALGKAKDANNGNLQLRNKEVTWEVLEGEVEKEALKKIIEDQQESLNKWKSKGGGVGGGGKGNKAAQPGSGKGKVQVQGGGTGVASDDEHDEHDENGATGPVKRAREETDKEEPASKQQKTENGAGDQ

T2: La-Δlinker (Homo sapiens, UniProt P05455 1-408, del170-230)
T2 sequence: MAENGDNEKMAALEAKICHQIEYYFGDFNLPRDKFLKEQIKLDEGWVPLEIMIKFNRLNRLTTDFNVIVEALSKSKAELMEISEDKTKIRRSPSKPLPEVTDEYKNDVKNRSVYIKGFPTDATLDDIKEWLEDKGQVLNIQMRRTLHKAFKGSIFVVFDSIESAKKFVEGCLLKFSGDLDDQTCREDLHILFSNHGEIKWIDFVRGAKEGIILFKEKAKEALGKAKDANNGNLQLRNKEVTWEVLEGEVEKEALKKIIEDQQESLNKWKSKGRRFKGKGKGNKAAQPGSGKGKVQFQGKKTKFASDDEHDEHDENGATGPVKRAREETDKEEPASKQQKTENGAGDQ

T3: La WT (LARP3) (Homo sapiens, UniProt P05455 1-408)
T3 sequence: T1 sequence with G334R, G335R, V336F, G337K, G339K, V357F, G360K, G361K, G363K, V364F

T4: LaΔ1 (LAM deleted) (Homo sapiens, UniProt P05455 1-408, del11-99)
T4 sequence: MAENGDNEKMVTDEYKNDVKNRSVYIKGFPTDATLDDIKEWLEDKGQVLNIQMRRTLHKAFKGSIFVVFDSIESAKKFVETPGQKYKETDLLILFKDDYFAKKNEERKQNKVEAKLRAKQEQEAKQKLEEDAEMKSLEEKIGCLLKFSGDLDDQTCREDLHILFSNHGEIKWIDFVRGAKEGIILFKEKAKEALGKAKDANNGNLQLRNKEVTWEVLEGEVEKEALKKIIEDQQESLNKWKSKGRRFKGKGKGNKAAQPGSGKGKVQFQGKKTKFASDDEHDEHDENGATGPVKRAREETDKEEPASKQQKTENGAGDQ


What was measured:
LaΔRCD = biological target: T1, LaΔRCD; experiment: EMSA; similar to WT; two complexes at high La; 20 mM Tris/HCl pH 8.0, 150 mM NaCl, 1.5 mM MgCl2, 0.5 mM EDTA, 0.5% NP-40 (FP: IGEPAL CA-630, 100 ug/ml bovine gamma globulin), 10 nM RNA, room temperature; conditions: protein: recombinant; tags: His; label: 32P (EMSA) or 5'-FAM (FP); hairpin (predicted)
La-Δlinker = biological target: T2, La-Δlinker; experiment: EMSA; 20 mM Tris/HCl pH 8.0, 150 mM NaCl, 1.5 mM MgCl2, 0.5 mM EDTA, 0.5% NP-40 (FP: IGEPAL CA-630, 100 ug/ml bovine gamma globulin), 10 nM RNA, room temperature; conditions: protein: recombinant; tags: His; label: 32P (EMSA) or 5'-FAM (FP); hairpin (predicted)
La WT (LARP3) [1] = biological target: T3, La WT (LARP3); experiment: as above; conditions: protein: recombinant; tags: His; label: 32P (EMSA) or 5'-FAM (FP); hairpin (predicted)
La WT (LARP3) [2] = biological target: T3, La WT (LARP3); experiment: fluorescence polarization; 5'-FAM RNA; 20 mM Tris/HCl pH 8.0, 150 mM NaCl, 1.5 mM MgCl2, 0.5 mM EDTA, 0.5% NP-40 (FP: IGEPAL CA-630, 100 ug/ml bovine gamma globulin), 10 nM RNA, room temperature; conditions: protein: recombinant; tags: His; label: 32P (EMSA) or 5'-FAM (FP); hairpin (predicted)
LaΔ1 (LAM deleted) = biological target: T4, LaΔ1 (LAM deleted); experiment: EMSA; affinity similar to WT; two complexes; 20 mM Tris/HCl pH 8.0, 150 mM NaCl, 1.5 mM MgCl2, 0.5 mM EDTA, 0.5% NP-40 (FP: IGEPAL CA-630, 100 ug/ml bovine gamma globulin), 10 nM RNA, room temperature; conditions: protein: recombinant; tags: His; label: 32P (EMSA) or 5'-FAM (FP); hairpin (predicted)
La WT (LARP3) [3] = biological target: T3, La WT (LARP3); experiment: competition; vs labeled D1-AUG; 20 mM Tris/HCl pH 8.0, 150 mM NaCl, 1.5 mM MgCl2, 0.5 mM EDTA, 0.5% NP-40 (FP: IGEPAL CA-630, 100 ug/ml bovine gamma globulin), 10 nM RNA, room temperature; conditions: protein: recombinant; tags: His

Binder | binding result (LaΔRCD) | binding result (La-Δlinker) | Kd (La WT (LARP3) [1]) [nM] | Kd (La WT (LARP3) [2]) [nM] | binding result (LaΔ1 (LAM deleted)) | binding result (La WT (LARP3) [3])
GCUGCCCAGGAAGAGCCCCAGCCAUGGAACACCAGCUCCUGUGCUGC (structured_RNA) [D1-AUG] | binds | no binding | 80.3 | 76 | binds | 
CAGGAAGAGCCCCAGCCAGGGAACACCAGCUCCUG (ssRNA) [D1-mu2] |  |  |  |  |  | binds
CAGGAAGAGCCCCACAGAUGCACCACCAGCUCCUG (ssRNA) [D1-mu3] |  |  |  |  |  | no binding
